The target in assay [1] is p51 (polymerase domain of HIV-1 reverse transcriptase) (HIV-1) (UniProt P03366). Kind of assay: NMR.
The target of assay [2] is HIV-1 reverse transcriptase p66 p66 (Human immunodeficiency virus 1) (UniProt O93215). As to conditions: cited from earlier work.

Broadly, the stoichiometry N is the number of molecules, sites or subunits per partner or assembly. By Kd is commonly meant the equilibrium constant for the complex coming apart.

Regarding “p51 (polymerase domain of HIV-1 reverse transcriptase) (from UniProt P03366 600-1025) (domain or fragment)”, in assay [1], the percent dimeric came out at 80% and the stoichiometry N came out at 2.

As for “HIV-1 reverse transcriptase p66 p66 (from UniProt O93215)”, the equilibrium dissociation constant (Kd) in assay [2] was 4 µM.

Source of the values: PMC5614878.
